Numbered stars: 1 amine (or outer) side, 2 acyl side, 3 side chain; on linkers, the order of the positions; unused ones are H or OH. Bridge positions count the residues as written; N and C are the ends. Square brackets hold non-standard residues; d marks the D form. Ends that are not written are not given here. 1Nal = N[C@@H](Cc1cccc2ccccc12)C(=O)O; TBMB = c1c(C[*:1])cc(C[*:3])cc1C[*:2]; Gly(cPent) = N[C@H](C(=O)O)C1CCCC1; hArg = N=C(N)NCCCC[C@H](N)C(=O)O; Tle = CC(C)(C)[C@H](N)C(=O)O; Aib = CC(C)(N)C(=O)O; βAla = NCCC(=O)O; Sar = CNCC(=O)O

T1 sequence (P29317 24-537): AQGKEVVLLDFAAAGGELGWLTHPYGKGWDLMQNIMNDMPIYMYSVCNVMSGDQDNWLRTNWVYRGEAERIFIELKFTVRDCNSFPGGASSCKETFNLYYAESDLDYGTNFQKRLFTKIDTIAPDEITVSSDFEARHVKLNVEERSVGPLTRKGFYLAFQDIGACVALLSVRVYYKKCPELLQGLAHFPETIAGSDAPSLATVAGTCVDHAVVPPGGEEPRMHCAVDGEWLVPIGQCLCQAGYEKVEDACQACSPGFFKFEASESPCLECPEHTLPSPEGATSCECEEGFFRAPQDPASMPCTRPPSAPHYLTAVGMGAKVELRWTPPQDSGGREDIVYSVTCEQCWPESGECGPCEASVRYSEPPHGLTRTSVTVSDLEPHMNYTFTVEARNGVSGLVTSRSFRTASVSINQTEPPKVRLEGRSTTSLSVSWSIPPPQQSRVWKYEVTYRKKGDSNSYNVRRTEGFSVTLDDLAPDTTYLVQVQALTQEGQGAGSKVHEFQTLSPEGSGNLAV

The first assay concerns the target T1, Human EphA2 (Human, UniProt P29317 24-537).
T1 construct: extracellular domain; also called EphA2 (Ecto), Human
Nature of the assay: FP competition; competitor: fluorescent Compound 18. As for the experimental part:
Peptides without a fluorescent tag were tested in competition with a peptide with a fluorescent tag and a known Kd (Table 2). Peptides were diluted to an appropriate concentration in assay buffer as described in the direct binding assay with a maximum of 5% DMSO, then serially diluted 1 in 2. Five μL of diluted peptide was added to the plate followed by 10 μL of human or mouse EphA2 (Table 1) at a fixed concentration which was dependent on the fluorescent peptide used (Table 2), then 10 μL fluorescent peptide added. Measurements were conducted as for the direct binding assay, however the gain was determined prior to the first measurement.
A word on the Ki: it is a measure of affinity in units of concentration, obtained from inhibition or displacement. For the molecule ADVHCPWGPFWCPV[dA]RPGCA (linker 5-12-19 via TBMB, bicyclic peptide) [Compound 155], the Ki is 2 nM.
The same measure, in the same setting: in the case of Ac-[Sar][Sar]A[dD]VTCPWGPAWCPVNRPGC (linker 7-14-21 via TBMB, bicyclic peptide) [Compound 173] it was 6.69 nM; in that of [Sar][Sar]ACPWAPFWCPVNRPGC (linker 4-11-18 via TBMB, bicyclic peptide) [Compound 288], above 1000 nM; in that of [Sar][Sar]ACPWGPFWCAVNRPGC (linker 4-11-18 via TBMB, bicyclic peptide) [Compound 291], above 1000 nM.
In the case of ADVHCPWGPFWCPVN[dA]PGCA (linker 5-12-19 via TBMB, bicyclic peptide) [Compound 156], the Ki worked out at 14.9 nM.
Still for that read-out and setting: the value for ADVHCPWAPFWCPVNRPGCA (linker 5-12-19 via TBMB, bicyclic peptide) [Compound 151] was 394 nM; that for ADVHCPWGAFWCPVNRPGCA (linker 5-12-19 via TBMB, bicyclic peptide) [Compound 152] was 1.8 nM.

The target of another assay is T2, Human EphA2 (Ecto) (Human, UniProt P29317 24-537).
T2 construct: extracellular domain
T2 sequence (P29317 24-537): as the sequence (P29317 24-537) above
Nature of the assay: FP competition; competitor Compound 18.
For the molecule [βAla][Sar][Sar][Sar][Sar][Sar][Sar][Sar][Sar][Sar][Sar]H[dD]VPCPWG[Aib]F[1Nal]CP[Tle]N[hArg]P[dD]C (linker 16-23-30 via TBMB) [Compound 269], the Ki was determined as 1.11 nM.
The same measure, in the same setting: the value for [βAla][Sar][Sar][Sar][Sar][Sar][Sar][Sar][Sar][Sar][Sar]H[dD][Gly(cPent)]PCP[1Nal]G[Aib]F[1Nal]CP[Tle]NR[Aib]GC (linker 16-23-30 via TBMB) [Compound 278] was 0.46 nM; that for [βAla][Sar][Sar][Sar][Sar][Sar][Sar][Sar][Sar][Sar][Sar]H[dD][Gly(cPent)]PC[Aib]WG[Aib]FWCP[Tle]NR[Aib][dD]C (linker 16-23-30 via TBMB) [Compound 275] was 15.9 nM; that for Ac-[Sar][Sar]H[dD]VTCP[1Nal]G[Aib]F[1Nal]CP[Tle]NR[Aib]GC (linker 7-14-21 via TBMB) [Compound 285] was 1.21 nM.
Still for that read-out and setting: in the case of {Ac-βAla}-[Sar][Sar][Sar][Sar][Sar][Sar][Sar][Sar][Sar][Sar]H[dD][Gly(cPent)]PC[Aib][1Nal]G[Aib]F[1Nal]CP[Tle]NR[Aib][dD]C (linker 15-22-29 via TBMB) [Compound 274] it was 2.28 nM.
The same measure, in the same setting: the value for [βAla][Sar][Sar][Sar][Sar][Sar][Sar][Sar][Sar][Sar][Sar]H[dD][Gly(cPent)]TCP[1Nal]G[Aib]F[1Nal]CP[Tle]NR[Aib]GC (linker 16-23-30 via TBMB) [Compound 279] was 0.59 nM; that for {Ac-βAla}-[Sar][Sar][Sar][Sar][Sar][Sar][Sar][Sar][Sar][Sar]H[dD][Gly(cPent)]PCP[1Nal]G[Aib]F[1Nal]CP[Tle]N[hArg]P[dD]C (linker 15-22-29 via TBMB) [Compound 277] was 0.53 nM; that for [βAla][Sar][Sar][Sar][Sar][Sar][Sar][Sar][Sar][Sar][Sar]H[dD][Gly(cPent)]TCP[1Nal]G[Aib]F[1Nal]CP[Tle]N[hArg]P[dD]C (linker 16-23-30 via TBMB) [Compound 280] was 0.64 nM.

The values above are taken from patent US20200338203A1 (Bicycle, published 2020).
